Laboratory results published in US20140087995A1 (published 2014).
Numbered stars: 1 amine (or outer) side, 2 acyl side, 3 side chain; on linkers, the order of the positions; unused ones are H or OH. Bridge positions count the residues as written; N and C are the ends. Side chains are listed from the residue outwards. Ends that are not written are not given here. * marks the point of attachment. C20 diacid = O=C(O)CCCCCCCCCCCCCCCCCCC(=O)*; γGlu = O=C(O)[C@H](CCC(=O)[*:2])N[*:1]; AEEA = NCCOCCOCC(=O)O

B1: N^ε1-[2-[2-[2-[[(4S)-4-carboxy-4-(19-carboxynonadecanoylamino)butanoyl]amino]ethoxy]ethoxy]acetyl]-[Lys14,Arg17,Pro21,Pro27,Pro31]-h-amylin (peptide)
peptide: K([AEEA-γGlu-C20 diacid])CNTATCATQRLAKFLRHSSPNFGAIPSSTPVGSNTY-NH2
modifications: disulfide 2-7; N-terminus assumed
SMILES: CC[C@H](C)[C@H](NC(=O)[C@H](C)NC(=O)CNC(=O)[C@H](Cc1ccccc1)NC(=O)[C@H](CC(N)=O)NC(=O)[C@@H]1CCCN1C(=O)[C@H](CO)NC(=O)[C@H](CO)NC(=O)[C@H](Cc1c[nH]cn1)NC(=O)[C@H](CCCNC(=N)N)NC(=O)[C@H](CC(C)C)NC(=O)[C@H](Cc1ccccc1)NC(=O)[C@H](CCCCN)NC(=O)[C@H](C)NC(=O)[C@H](CC(C)C)NC(=O)[C@H](CCCNC(=N)N)NC(=O)[C@H](CCC(N)=O)NC(=O)[C@@H](NC(=O)[C@H](C)NC(=O)[C@@H]1CSSC[C@H](NC(=O)[C@@H](N)CCCCNC(=O)COCCOCCNC(=O)CC[C@H](NC(=O)CCCCCCCCCCCCCCCCCCC(=O)O)C(=O)O)C(=O)N[C@@H](CC(N)=O)C(=O)N[C@@H]([C@@H](C)O)C(=O)N[C@@H](C)C(=O)N[C@@H]([C@@H](C)O)C(=O)N1)[C@@H](C)O)C(=O)N1CCC[C@H]1C(=O)N[C@@H](CO)C(=O)N[C@@H](CO)C(=O)N[C@H](C(=O)N1CCC[C@H]1C(=O)N[C@H](C(=O)NCC(=O)N[C@@H](CO)C(=O)N[C@@H](CC(N)=O)C(=O)N[C@H](C(=O)N[C@@H](Cc1ccc(O)cc1)C(N)=O)[C@@H](C)O)C(C)C)[C@@H](C)O
notes: analogue of human amylin; also called compound 74
B2: N^ε1-[2-[2-[2-[[(4S)-4-carboxy-4-(19-carboxynonadecanoylamino)butanoyl]amino]ethoxy]ethoxy]acetyl]-[Ser14,Arg17,Pro21,Pro27,Pro31]-h-amylin (peptide)
peptide: K([AEEA-γGlu-C20 diacid])CNTATCATQRLASFLRHSSPNFGAIPSSTPVGSNTY-NH2
modifications: disulfide 2-7; N-terminus assumed
SMILES: CC[C@H](C)[C@H](NC(=O)[C@H](C)NC(=O)CNC(=O)[C@H](Cc1ccccc1)NC(=O)[C@H](CC(N)=O)NC(=O)[C@@H]1CCCN1C(=O)[C@H](CO)NC(=O)[C@H](CO)NC(=O)[C@H](Cc1c[nH]cn1)NC(=O)[C@H](CCCNC(=N)N)NC(=O)[C@H](CC(C)C)NC(=O)[C@H](Cc1ccccc1)NC(=O)[C@H](CO)NC(=O)[C@H](C)NC(=O)[C@H](CC(C)C)NC(=O)[C@H](CCCNC(=N)N)NC(=O)[C@H](CCC(N)=O)NC(=O)[C@@H](NC(=O)[C@H](C)NC(=O)[C@@H]1CSSC[C@H](NC(=O)[C@@H](N)CCCCNC(=O)COCCOCCNC(=O)CC[C@H](NC(=O)CCCCCCCCCCCCCCCCCCC(=O)O)C(=O)O)C(=O)N[C@@H](CC(N)=O)C(=O)N[C@@H]([C@@H](C)O)C(=O)N[C@@H](C)C(=O)N[C@@H]([C@@H](C)O)C(=O)N1)[C@@H](C)O)C(=O)N1CCC[C@H]1C(=O)N[C@@H](CO)C(=O)N[C@@H](CO)C(=O)N[C@H](C(=O)N1CCC[C@H]1C(=O)N[C@H](C(=O)NCC(=O)N[C@@H](CO)C(=O)N[C@@H](CC(N)=O)C(=O)N[C@H](C(=O)N[C@@H](Cc1ccc(O)cc1)C(N)=O)[C@@H](C)O)C(C)C)[C@@H](C)O
notes: analogue of human amylin; also called compound 73
B3: N^ε1-[2-[2-[2-[[(4S)-4-carboxy-4-(19-carboxynonadecanoylamino)butanoyl]amino]ethoxy]ethoxy]acetyl]-[Thr14,Arg17,Pro21,Pro27,Pro31]-h-amylin (peptide)
peptide: K([AEEA-γGlu-C20 diacid])CNTATCATQRLATFLRHSSPNFGAIPSSTPVGSNTY-NH2
modifications: disulfide 2-7; N-terminus assumed
SMILES: CC[C@H](C)[C@H](NC(=O)[C@H](C)NC(=O)CNC(=O)[C@H](Cc1ccccc1)NC(=O)[C@H](CC(N)=O)NC(=O)[C@@H]1CCCN1C(=O)[C@H](CO)NC(=O)[C@H](CO)NC(=O)[C@H](Cc1c[nH]cn1)NC(=O)[C@H](CCCNC(=N)N)NC(=O)[C@H](CC(C)C)NC(=O)[C@H](Cc1ccccc1)NC(=O)[C@@H](NC(=O)[C@H](C)NC(=O)[C@H](CC(C)C)NC(=O)[C@H](CCCNC(=N)N)NC(=O)[C@H](CCC(N)=O)NC(=O)[C@@H](NC(=O)[C@H](C)NC(=O)[C@@H]1CSSC[C@H](NC(=O)[C@@H](N)CCCCNC(=O)COCCOCCNC(=O)CC[C@H](NC(=O)CCCCCCCCCCCCCCCCCCC(=O)O)C(=O)O)C(=O)N[C@@H](CC(N)=O)C(=O)N[C@@H]([C@@H](C)O)C(=O)N[C@@H](C)C(=O)N[C@@H]([C@@H](C)O)C(=O)N1)[C@@H](C)O)[C@@H](C)O)C(=O)N1CCC[C@H]1C(=O)N[C@@H](CO)C(=O)N[C@@H](CO)C(=O)N[C@H](C(=O)N1CCC[C@H]1C(=O)N[C@H](C(=O)NCC(=O)N[C@@H](CO)C(=O)N[C@@H](CC(N)=O)C(=O)N[C@H](C(=O)N[C@@H](Cc1ccc(O)cc1)C(N)=O)[C@@H](C)O)C(C)C)[C@@H](C)O
notes: analogue of human amylin; also called compound 75
B4: N^ε1-[(4S)-4-carboxy-4-(19-carboxynonadecanoylamino)butanoyl]-[Arg14,Arg17,Pro21,Pro27,Pro31]-h-amylin (peptide)
peptide: K([γGlu-C20 diacid])CNTATCATQRLARFLRHSSPNFGAIPSSTPVGSNTY-NH2
modifications: disulfide 2-7; N-terminus assumed
SMILES: CC[C@H](C)[C@H](NC(=O)[C@H](C)NC(=O)CNC(=O)[C@H](Cc1ccccc1)NC(=O)[C@H](CC(N)=O)NC(=O)[C@@H]1CCCN1C(=O)[C@H](CO)NC(=O)[C@H](CO)NC(=O)[C@H](Cc1c[nH]cn1)NC(=O)[C@H](CCCNC(=N)N)NC(=O)[C@H](CC(C)C)NC(=O)[C@H](Cc1ccccc1)NC(=O)[C@H](CCCNC(=N)N)NC(=O)[C@H](C)NC(=O)[C@H](CC(C)C)NC(=O)[C@H](CCCNC(=N)N)NC(=O)[C@H](CCC(N)=O)NC(=O)[C@@H](NC(=O)[C@H](C)NC(=O)[C@@H]1CSSC[C@H](NC(=O)[C@@H](N)CCCCNC(=O)CC[C@H](NC(=O)CCCCCCCCCCCCCCCCCCC(=O)O)C(=O)O)C(=O)N[C@@H](CC(N)=O)C(=O)N[C@@H]([C@@H](C)O)C(=O)N[C@@H](C)C(=O)N[C@@H]([C@@H](C)O)C(=O)N1)[C@@H](C)O)C(=O)N1CCC[C@H]1C(=O)N[C@@H](CO)C(=O)N[C@@H](CO)C(=O)N[C@H](C(=O)N1CCC[C@H]1C(=O)N[C@H](C(=O)NCC(=O)N[C@@H](CO)C(=O)N[C@@H](CC(N)=O)C(=O)N[C@H](C(=O)N[C@@H](Cc1ccc(O)cc1)C(N)=O)[C@@H](C)O)C(C)C)[C@@H](C)O
notes: analogue of human amylin; also called compound 63
B5: N^ε1-[(4S)-4-carboxy-4-(19-carboxynonadecanoylamino)butanoyl]-[Arg14,Arg17,Pro21,Pro27,Pro34]-h-amylin (peptide)
peptide: K([γGlu-C20 diacid])CNTATCATQRLARFLRHSSPNFGAIPSSTNVGPNTY-NH2
modifications: disulfide 2-7; N-terminus assumed
SMILES: CC[C@H](C)[C@H](NC(=O)[C@H](C)NC(=O)CNC(=O)[C@H](Cc1ccccc1)NC(=O)[C@H](CC(N)=O)NC(=O)[C@@H]1CCCN1C(=O)[C@H](CO)NC(=O)[C@H](CO)NC(=O)[C@H](Cc1c[nH]cn1)NC(=O)[C@H](CCCNC(=N)N)NC(=O)[C@H](CC(C)C)NC(=O)[C@H](Cc1ccccc1)NC(=O)[C@H](CCCNC(=N)N)NC(=O)[C@H](C)NC(=O)[C@H](CC(C)C)NC(=O)[C@H](CCCNC(=N)N)NC(=O)[C@H](CCC(N)=O)NC(=O)[C@@H](NC(=O)[C@H](C)NC(=O)[C@@H]1CSSC[C@H](NC(=O)[C@@H](N)CCCCNC(=O)CC[C@H](NC(=O)CCCCCCCCCCCCCCCCCCC(=O)O)C(=O)O)C(=O)N[C@@H](CC(N)=O)C(=O)N[C@@H]([C@@H](C)O)C(=O)N[C@@H](C)C(=O)N[C@@H]([C@@H](C)O)C(=O)N1)[C@@H](C)O)C(=O)N1CCC[C@H]1C(=O)N[C@@H](CO)C(=O)N[C@@H](CO)C(=O)N[C@H](C(=O)N[C@@H](CC(N)=O)C(=O)N[C@H](C(=O)NCC(=O)N1CCC[C@H]1C(=O)N[C@@H](CC(N)=O)C(=O)N[C@H](C(=O)N[C@@H](Cc1ccc(O)cc1)C(N)=O)[C@@H](C)O)C(C)C)[C@@H](C)O
notes: analogue of human amylin; also called compound 65

Target: T1, human calcitonin receptor (human, UniProt P30988 25-474)
T1 sequence (looked up): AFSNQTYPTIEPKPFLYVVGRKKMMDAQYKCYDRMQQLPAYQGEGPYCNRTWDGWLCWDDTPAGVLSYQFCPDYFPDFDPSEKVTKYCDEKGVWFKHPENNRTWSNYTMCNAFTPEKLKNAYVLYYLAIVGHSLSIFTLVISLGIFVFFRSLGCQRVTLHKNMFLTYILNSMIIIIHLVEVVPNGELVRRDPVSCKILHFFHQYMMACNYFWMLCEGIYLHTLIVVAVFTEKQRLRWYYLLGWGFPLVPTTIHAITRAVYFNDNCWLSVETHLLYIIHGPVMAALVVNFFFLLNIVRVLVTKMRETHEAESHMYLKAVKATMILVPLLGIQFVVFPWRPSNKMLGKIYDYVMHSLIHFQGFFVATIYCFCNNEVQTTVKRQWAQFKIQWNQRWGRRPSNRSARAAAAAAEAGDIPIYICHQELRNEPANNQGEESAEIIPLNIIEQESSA
Test: cell-based or functional assay

Compared with B1, B2 is 39-fold lower in “hCTR funct. EC50” value: 37.5 nM for the first, 0.961 nM for the second.

Compared with B3, B4 is 1.8-fold lower in “hCTR funct. EC50” value: 9.07 nM for the first, 5.13 nM for the second.

For B5, the “hCTR funct. EC50” value was 9.33 nM.
